Tests used:
[1] = molecular target: H3-mini2-cl9 + 10 + 11-tri (influenza A virus H3N2); experiment: FACS
[2] = molecular target: H3-mini2-cl9 + 10 + 11-GCN4 (influenza A virus H3N2); experiment: FACS
H3-mini2-cl9 + 13 = H3-mini2-cl9 + 13 (influenza A virus H3N2, UniProt Q38SQ8 18-566); experiment: FACS
[3] = molecular target: H3-mini2-cl9 + 10 + 11 + 13 (influenza A virus H3N2, UniProt Q38SQ8 18-566); experiment: FACS
[4] = molecular target: H3-mini2-cl9 + 10 + 11 + 13-GCN4 (influenza A virus H3N2); experiment: FACS
[5] = molecular target: H3-mini2-cl9 + 10 + 11 + 13-tri (influenza A virus H3N2); experiment: FACS
[6] = molecular target: HA of influenza virus A/Brisbane/10/2007 (H3) (influenza A virus H3); experiment: cell-based or functional assay
[7] = molecular target: HA of influenza virus A/WF/MPA 892/06 (H4) (influenza A virus H4); experiment: cell-based or functional assay
[8] = molecular target: HA of influenza virus A/Chick/Germany/N/49 (H10) (influenza A virus H10); experiment: cell-based or functional assay
[9] = molecular target: HA of influenza virus A/Env/MPU3156/05 (H2) (influenza A virus H2); experiment: cell-based or functional assay
[10] = molecular target: HA of influenza virus A/EW/MPF461/07 (H5) (influenza A virus H5); experiment: cell-based or functional assay
[11] = molecular target: HA of influenza virus A/EW/MPD411/07 (H6) (influenza A virus H6); experiment: cell-based or functional assay
[12] = molecular target: HA of influenza virus A/EW/MPH571/08 (H8) (influenza A virus H8); experiment: cell-based or functional assay
[13] = molecular target: HA of influenza virus A/Hong Kong/1073/99 (H9) (influenza A virus H9); experiment: cell-based or functional assay
[14] = molecular target: HA of influenza virus A/Ck/HK/SSP176/09 (H9) (influenza A virus H9); experiment: cell-based or functional assay
[15] = molecular target: HA of influenza virus A/Johannesburg/33/94 (H3) (influenza A virus H3); experiment: cell-based or functional assay
[16] = molecular target: HA of influenza virus A/Panama/2007/1999 (H3) (influenza A virus H3); experiment: cell-based or functional assay
[17] = molecular target: HA of influenza virus A/Hiroshima/52/2005 (H3) (influenza A virus H3); experiment: cell-based or functional assay

B1: CR9114 (antibody, V domains shown)
VH: QVQLVQSGAEVKKPGSSVKVSCKSSGGTSNNYAISWVRQAPGQGLDWMGGISPIFGSTAYAQKFQGRVTISADIFSNTAYMELNSLTSEDTAVYFCARHGNYYYYSGMDVWGQGTTVTVSS
VL: SYVLTQPPAVSGTPGQRVTISCSGSDSNIGRRSVNWYQQFPGTAPKLLIYSNDQRPSVVPDRFSGSKSGTSASLAISGLQSEDEAEYYCAAWDDSLKGAVFGGGTQLTVL
binding result [1]: no binding (tested: 5 microgram/ml) | binding result [2]: no binding (tested: 5 microgram/ml) | binding result (H3-mini2-cl9 + 13): no binding (tested: 5 microgram/ml) | binding result [3]: no binding (tested: 5 microgram/ml) | binding result [4]: no binding (tested: 5 microgram/ml) | binding result [5]: no binding (tested: 5 microgram/ml) | geomean IC50, virus neutralization assay (VNA) [6]: 5.6 µg/mL | geomean IC50, virus neutralization assay (VNA) [7]: 0.8 µg/mL | geomean IC50, virus neutralization assay (VNA) [8]: 15.7 µg/mL | geomean IC50, virus neutralization assay (VNA) [9]: 8.8 µg/mL | geomean IC50, virus neutralization assay (VNA) [10]: 10.5 µg/mL | geomean IC50, virus neutralization assay (VNA) [11]: 10.5 µg/mL | geomean IC50, virus neutralization assay (VNA) [12]: 8.8 µg/mL | geomean IC50, virus neutralization assay (VNA) [13]: 4.4 µg/mL | geomean IC50, virus neutralization assay (VNA) [14]: 6.3 µg/mL | geomean IC50, virus neutralization assay (VNA) [15]: 21.9 µg/mL | geomean IC50, virus neutralization assay (VNA) [16]: 39.9 µg/mL | geomean IC50, virus neutralization assay (VNA) [17]: 12.5 µg/mL

Reference: US20140357845A1 (published 2014)
